Measured values published in patent US20210187069A1.

Target: wildtype SARM1 (endogenous, in wildtype mouse dorsal root ganglion neurons) (mouse) (UniProt Q6PDS3)
Assay: cell-based or functional assay

Sequence of wildtype SARM1 (endogenous, in wildtype mouse dorsal root ganglion neurons) (mouse) (Q6PDS3 28-724 limits assumed): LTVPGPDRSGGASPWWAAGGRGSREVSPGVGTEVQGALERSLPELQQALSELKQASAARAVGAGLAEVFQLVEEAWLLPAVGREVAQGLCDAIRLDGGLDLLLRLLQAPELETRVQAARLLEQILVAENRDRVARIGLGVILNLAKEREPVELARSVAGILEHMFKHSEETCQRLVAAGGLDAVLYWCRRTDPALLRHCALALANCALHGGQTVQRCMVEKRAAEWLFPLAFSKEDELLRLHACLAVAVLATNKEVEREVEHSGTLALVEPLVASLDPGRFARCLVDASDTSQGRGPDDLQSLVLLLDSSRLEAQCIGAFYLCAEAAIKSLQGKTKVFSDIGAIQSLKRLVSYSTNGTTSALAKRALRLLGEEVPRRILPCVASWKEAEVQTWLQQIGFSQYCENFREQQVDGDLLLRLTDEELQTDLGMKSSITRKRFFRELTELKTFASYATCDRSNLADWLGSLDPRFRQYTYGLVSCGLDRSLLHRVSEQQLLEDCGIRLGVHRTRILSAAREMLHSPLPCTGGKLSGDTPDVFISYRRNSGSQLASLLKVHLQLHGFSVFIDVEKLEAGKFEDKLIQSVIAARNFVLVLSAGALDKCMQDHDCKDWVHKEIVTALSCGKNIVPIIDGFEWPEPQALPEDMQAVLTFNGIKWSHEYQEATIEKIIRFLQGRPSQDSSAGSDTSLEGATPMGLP

axon degeneration after axotomy: 24 h
Substance: SARM1 E569K (from UniProt Q6SZW1 28-724)
